In assay [1] the target is T1, Granulocyte-colony stimulating factor receptor (G-CSF-R) (human).
T1 chain: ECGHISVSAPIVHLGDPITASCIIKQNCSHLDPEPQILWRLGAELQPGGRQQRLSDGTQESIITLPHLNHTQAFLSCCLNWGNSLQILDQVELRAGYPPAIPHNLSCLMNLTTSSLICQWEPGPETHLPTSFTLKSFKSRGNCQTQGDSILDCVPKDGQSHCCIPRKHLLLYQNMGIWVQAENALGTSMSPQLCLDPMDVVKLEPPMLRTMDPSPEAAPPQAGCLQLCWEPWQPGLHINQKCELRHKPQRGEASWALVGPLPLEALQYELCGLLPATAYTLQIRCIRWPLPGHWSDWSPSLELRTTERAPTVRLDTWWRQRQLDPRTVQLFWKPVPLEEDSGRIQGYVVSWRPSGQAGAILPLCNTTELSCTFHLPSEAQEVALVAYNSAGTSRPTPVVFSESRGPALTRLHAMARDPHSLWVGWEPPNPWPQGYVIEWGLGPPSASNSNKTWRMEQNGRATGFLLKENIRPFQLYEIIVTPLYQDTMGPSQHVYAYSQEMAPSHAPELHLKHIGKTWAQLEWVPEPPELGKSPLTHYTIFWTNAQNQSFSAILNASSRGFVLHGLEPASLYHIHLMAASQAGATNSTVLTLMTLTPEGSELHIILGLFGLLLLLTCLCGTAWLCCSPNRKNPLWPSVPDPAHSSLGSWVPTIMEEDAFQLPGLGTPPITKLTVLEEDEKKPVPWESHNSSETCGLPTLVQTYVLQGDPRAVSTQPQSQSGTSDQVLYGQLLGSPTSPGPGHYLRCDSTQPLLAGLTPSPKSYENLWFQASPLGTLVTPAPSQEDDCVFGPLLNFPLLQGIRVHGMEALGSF
Put plainly: saturation binding of radioligand to SH-SY5Y neuronal cells (value in the text differs from Table 2). Here is the method:
(§1) Binding of [¹²⁵I]-G-CSF was measured using previously described method (Kondo, S., et al. Eur. J. Haematol. 1991, 46, 223-30) with some modifications (Pennington, A., et al. Alzheimer's Disease and Parkinsonism 2013, 3, 121). [¹²⁵I]-G-CSF (specific activity 46.55 TBq/mmol) was purchased from Perkin Elmer (Waltham, Mass.). Cells were incubated in 180 μL of binding medium containing 0.2% BSA, 5 mM MgSO₄, and 50 mM Hepes, pH 7.2 at a concentration of 1.5×10⁷ cells/mL and the appropriate concentration of [¹²⁵I]-G-CSF. Incubations were carried out at room temperature with periodic shaking to ensure continuous mixing of cells and radioactive ligand. […] Nonspecific binding of [¹²⁵I]-G-CSF was measured by incubations in the presence of a 100-fold molar excess of unlabeled G-CSF. […] Bound and free ligand activities were counted after cutting tubes in two pieces and placing the tips and tops, respectively into separate scintillation vials. […] The specific binding was determined from the amount of bound [¹²⁵I]-G-CSF blocked by competition with excess unlabeled G-CSF. The parameters of saturation binding experiments including dissociation constant (Kd), maximum binding capacity (Bmax) and binding cooperativity (h) were calculated with GraphPad Prism 5 software (La Jolla, Calif.) by using nonlinear regression analysis. […]

For assay [2], the target named is T1, Granulocyte-colony stimulating factor …. Description: saturation binding of radioligand to SH-SY5Y neuronal cells, nonlinear regression. The method, then:
as §1

Assay [3] shares this target. Put plainly: saturation binding of radioligand to THP-1 monocytic cells (value in the text differs from Table 2). The method, then:
as §1

Assay [4] shares this target. Put plainly: saturation binding of radioligand to THP-1 monocytic cells, nonlinear regression. Here is the method: as §1

B1: [125I]-G-CSF (ligand)
chain: TPLGPASSLPQSFLLKCLEQVRKIQGDGAALQEKLVSECATYKLCHPEELVLLGHSLGIPWAPLSSCPSQALQLAGCLSQLHSGLFLYQGLLQALEGISPELGPTLDTLQLDVADFATTIWQQMEELGMAPALQPTQGAMPAFASAFQRRAGGVLVASHLQSFLEVSYRVLRHLAQP
modifications: 125I radiolabel (specific activity 46.55 TBq/mmol); labelled residue not stated
As usually defined, the Kd is a measure of binding affinity in units of concentration. Read a low Kd as a tighter complex. On to B1, for which the Kd in assay [1] was 0.607 nM; in assay [2] it was 0.608 nM; in assay [3], 0.0575 nM; in assay [4], 0.0538 nM.

(Values after patent US20180177763A1, “SMALL MOLECULES THAT MIMIC OR ANTAGONIZE ACTIONS OF GRANULOCYTE COLONY-STIMULATING-FACTOR (G-CSF)” (published 2018).)
